The test has as its target T1, 牛血清白蛋白BSA (bovine, UniProt P02769 25-607).
T1 construct: also called BSA蛋白; 牛血清蛋白
Nature of the test: phage ELISA, coated protein. (In general: In an ELISA, binding on a coated surface is turned into a signal by an enzyme label.)

T1 sequence (P02769 25-607 limits assumed): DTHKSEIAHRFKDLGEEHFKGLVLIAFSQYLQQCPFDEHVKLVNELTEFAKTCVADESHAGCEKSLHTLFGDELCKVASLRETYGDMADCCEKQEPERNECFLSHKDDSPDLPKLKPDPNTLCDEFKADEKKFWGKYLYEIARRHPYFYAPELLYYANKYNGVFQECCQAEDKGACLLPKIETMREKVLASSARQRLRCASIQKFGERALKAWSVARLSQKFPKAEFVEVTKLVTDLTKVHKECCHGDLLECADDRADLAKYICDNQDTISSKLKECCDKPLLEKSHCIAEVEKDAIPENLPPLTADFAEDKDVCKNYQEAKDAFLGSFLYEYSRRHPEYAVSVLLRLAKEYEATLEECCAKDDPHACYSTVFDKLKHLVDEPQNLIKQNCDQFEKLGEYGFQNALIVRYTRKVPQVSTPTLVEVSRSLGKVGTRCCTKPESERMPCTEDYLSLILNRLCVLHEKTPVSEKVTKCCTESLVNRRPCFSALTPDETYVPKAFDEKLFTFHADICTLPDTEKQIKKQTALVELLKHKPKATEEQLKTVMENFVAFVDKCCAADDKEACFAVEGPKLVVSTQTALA

B1: 噬菌体展示的A4抗体 (单克隆抗体A4) (antibody, V domains shown)
VH: EVQLLESGGGLVQPGGSLRLSCAASGFTFSSYAMSWVRQAPGKGLEWVSYITNNGANTSYADSVKGRFTISRDNSKNTLYLQMNSLRAEDTAVYYCAKSYATFDYWGQGTLVTVSS
VL: DIQMTQSPSSLSASVGDRVTITCRASQSISSYLNWYQQKPGKAPKLLIYNASGLQSGVPSRFSGSGSGTDFTLTISSLQPEDFATYYCQQAAYYPTTFGQGTKVEIKR
notes: also called 噬菌体展示A4抗体; A4噬菌体
B1: the binding result is “no binding (tested: 1μg/mL coated)”.

B2: 噬菌体展示的A2抗体 (单克隆抗体A2) (antibody, V domains shown)
VH: EVQLLESGGGLVQPGGSLRLSCAASGFTFSSYAMSWVRQAPGKGLEWVSGIDASGYYTSYADSVKGRFTISRDNSKNTLYLQMNSLRAEDTAVYYCAKDAYTFDYWGQGTLVTVSS
VL: DIQMTQSPSSLSASVGDRVTITCRASQSISSYLNWYQQKPGKAPKLLIYSASYLQSGVPSRFSGSGSGTDFTLTISSLQPEDFATYYCQQASADPDTFGQGTKVEIKR
As for B2, the binding result is on record as “no binding (tested: 1μg/mL coated)”.

B3: 噬菌体展示的C3抗体 (单克隆抗体C3) (antibody, V domains shown)
VH: EVQLLESGGGLVQPGGSLRLSCAASGFTFSSYAMSWVRQAPGKGLEWVSSIASSGYYTDYADSVKGRFTISRDNSKNTLYLQMNSLRAEDTAVYYCAKDADSFDYWGQGTLVTVSS
VL: DIQMTQSPSSLSASVGDRVTITCRASQSISSYLNWYQQKPGKAPKLLIYAASYLQSGVPSRFSGSGSGTDFTLTISSLQPEDFATYYCQQAYSAPSTFGQGTKVEIKR
Regarding B3, the binding result is “no binding (tested: 1μg/mL coated)”.

(Values after patent CN111995676A (UNIV WEIFANG MEDICAL, dated 2020).)
